# Assay results taken from the domain aggregation screens of Martell et al. (2025).
# Experiment: soluble fraction after stress (log2 fold change); higher = more stays soluble; pooled small domains, quantitative proteomics
# Details: stress: 75 degC
# 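Note: 20 min heating vs room temperature control held 20 min.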
row,Sequence,soluble fraction (log2)
1,HMDAPHPSVVQVYFESRDRSWTYYNDRFDLHEGDLVYVEGKLEGVRGRVVEVSYNFRIKLADYKRVIAVA,-3.29
2,HMDASSAVQFGSLLRDARRRQGLSQAELGGDKYSGSYISHLESGRRVATPEVIEFLSRRLGVSPLEWGVS,-0.0146
3,HMDASSTGFLGKHVQIVGLVSQPHLNGRRGVASRFDSNRRRYLVRLDEIDGHAEVVAFRPDNLVLSNLL,-0.627
4,HMDASVTIEQVERMVQANVSDDVIISQLQGRGAAQNLSTDDIINLTQKGISAEVIKAYQSAG,0.111
5,HMDAVLMEYDRLLALELTEDPDVYQDLLDKVREQSLGADGRVTDKYREKFDAVATRFDDYEDNYQW,-0.113
6,HMDAVQAGKRVLIVDDLIATGGTAKAATDLIEKAGGTVVGFSFVMRLDGLDGLDKLDGKPSSSLIAMP,0.193
7,HMDAYMGEAKDEETFAEEYLNDSGLLNEIPESVARYFDIVAYARDLLIGDFSLHDGHVFNMT,0.358
8,HMDDAFLNKEMLKQALENLNEREKKLIYLRFYEGLTQKEIADRLSLSQMHVSRLLNESLNKLRRKI,-0.44
9,HMDDATDLPYQEFRTQVSDGQVKIAQFNNNTGKITFESISGDKFKTSGPLELSSDDERLFLENIEDFKFFT,0.0939
10,HMDDATDVPYQEFRTQVTSGQVEIAQFNNNTGKISFQSTSGEKFETSGPLELSSDDERLFLENIEDFKFFT,0.416
11,HMDDATIKVNIAAKFLNAGNNLFVDIDTTVLEGRVLLTGLVDTQEVRIDAVRLVWEVEGIREVINEIEIG,-5.19
12,HMDDATTQLADRLLDLRRKAGYSQEQLADLLGVSRQAISKWEGAQGRPEVDNVVKLAQIYRVSTDFILTGS,-0.698
13,HMDDAVSHPDAGHIVTVTKVSADGTAEVMYRGASWRAKTADGSPLTAGSARIVRVDGAALVVEP,0.0931
14,HMDDDDPDQEIAQYYEKLRAMNPDEETKQKLSDEINKLSKMMYSSQEAMVSRNYLDTVFSLPWHQF,-0.146
15,HMDDEELDALKGIPANEYTQEQIKQISEVFHTLQKNEVKDWLNSLQLRNIELPFELRNEVFSQ,0.211
16,HMDDFPLKRGSKGNRVTLLQNALVKKYGAGILPKYGVDGMFGKEVEAALVHAKIPTTINEANYTKIV,-0.0514
17,HMDDFSETLLQYIKEKGGHISLNDKTDAGVIYETFGVSKKTFKKAVGDLYKKRLIVLEDTGIRL,-0.501
18,HMDDHLSFLAARLPDGASFDTDFDALGIDSFGMIALRAEVEERLGEQIADSDWTKVERPSEILAMLERK,-0.204
19,HMDDLATAYKAMGVDASISDKDLKRAYRKLMSQHHPDKMIAKGVPADMVAMATEKTQEIQAAYDLIERSR,0.203
20,HMDDLIIQIELKQEGLEITGLKVLLKEDSVIDEQVKQTIRRKIERFLVNLYGNPNVYVSKFSMGI,-0.296
21,HMDDLTTASIKQQLKALIDEENKNKPLSDQKLTDALKAQGIDISRRTVAKYREAMNIPGSSKRKRF,-0.0771
22,HMDDMVLEIGPGIGTMTQYLAEAAGKVVAVEIDRNLLPILQETLADYDNVKVIHADVLSLDLEKLVQEE,-0.0859
23,HMDDPDALITDSQLKAIHVLLGKLKIDDNLKHAYIADVLQLKDIPETLKTLTKHQGSTIIERLNLLIKDA,-0.0192
24,HMDDPLSQLTPREREVLELMASGASNQGIADALVITVRAVEKYVSSIFGKLGLPSTGSESRRVLAVLTFLR,-0.178
25,HMDDPYAGLRQRAYLFLRERDGAVPEEELIEHVFGSSGNPALWRPLLRQVLGADDRLDLRADGYWALRG,-0.187

row,Sequence,soluble fraction (log2)
1,HMDDSPTARALRTLDLIHNRPGITAAELADRLGVTERAVRRYVLTLRDAGVPVLGTPGRYGGYQVGK,-0.818
2,HMDDSVTFSEFVRMVDSGQVESVRITGNEVTGSDSTGNTFRTFVPPQYEGLVNRLVERDVAVTAEE,0.149
3,HMDDSVVFSLNAKGIRLTGAGKYGEAIALFDKAIAAKPGLSGLYFNRAEARRLSGDLPGARSDLEQALAI,-0.416
4,HMDDTRLELTLLGKIHNDEEINKQSHINVNIKNGVILLTGESPRREITERILTLARTFEHTRQIVNQIAT,0.0479
5,HMDDVIDVYATYDKSAEGVLSNIQLFSNQKKTTPITPESGKIYIDVEGNYQFRWTGTQYATV,0.15
6,HMDDYRSLRGQEKAAIFLMSLSQEQAAKIFANLDDEEIKEISQAMSSLGTVGSEIIERLFVEFAEQVSS,-1.21
7,HMDEARLAVASNLIRLRTDAGMTQAELGEKLNYSDKTISKWERAEAIPDAFVLKQIGELFHVSVDFLLRTH,-2.28
8,HMDEDTWKLYKRAYKKYYARYMKGNMSEEAFKTWAAQAARDRDAAIEQVKAALDENLKAQVIERLKEELNR,-0.831
9,HMDEEEKGEVEVPNLIGLTRKEAKKTLEEEGLLIETKESLKTNLDDEYEKIKSQLPKAGIKIKQGSTVYVD,0.154
10,HMDEGQEHYVKETDLPFYSEADPASSVIFPLVLNQKLIEKERKDDWIRALEPTTGLVGWVLLKSLSPQQLS,-0.0643
11,HMDEIELLLQDAIQKLPEKQRMVFTLRYYDNLPYEEISKILDMSVSTLKTNYHYAKSKIEQYILDHS,-1.64
12,HMDEKPPHEALSNREFQVLQLLAQGRSVGQIAQQLTLSANTISTYRARIFDKLGLHNPADLFSYAARHRLT,-1.19
13,HMDELNFGNFEGTRIFVQRTARKKSIALSIRDGTIVILAPRHIPNQEIQELITTNTDWIRAKLSQHAETKR,-3.21
14,HMDELVYVPNITGKTVEEARTELQKRDLGLNIAGHQFSDEFGKGRIISQDPAAGSRLKVNRSISVIVSSGQ,0.0849
15,HMDENVVLRKVAREAFVIEYVRGIRAIDPGIGGPKLWLMYKREFGDNDTVGRDTFEDILDRNNLKVRI,-4.06
16,HMDEPADVAIFDGFRQMSEDELKKLYESLNLAMTFKDFLHIQNYFKNEENREPSVTEIRVLDTYWSDH,0.0441
17,HMDEPVDRLSPREQEVLALMAEGRSNAAIAHRLSITEKAVAKHINSIFTKLDLPLDEDDHRRVRAVLAWLR,-1.33
18,HMDESIPVITYKDSVYANPKAFADAHKLPYKSLHNALSKARKEGKVRFMYKQYNFHLDNNGYIVAVS,-1.22
19,HMDESLLDYALREIKARIQNGTYPPGTKLSTQEISDSLGISRTPVVAAINRLVAQGVAEAIPRRGTIVAR,-0.19
20,HMDETFTITFDPNGGTLNGSKTKTVSLGDIVYGKLPTASKTGYSFIGWFTEKEGGEQISSATKIIASDLTL,0.0518
21,HMDETPESIFAKANELYPKYIKYFYTEQEYYSKVEEYINLYEFQKNSTYILGKDLEEFLEEYITNKQ,-1.61
22,HMDEWDDGDKPKLKITLYADDDYYFASGFSKSSVSLSGSDGTVTSVSRSSSDTLIVYVTLDALD,0.033
23,HMDEYILTLDEVKELLKSKDYDDLKNVLKWSNKFQKDTIIQTAISEKVSDANVINIIKEITGQDITSLIV,-0.0278
24,HMDEYTREQFVADMEEGRVREVTIHPNSEVPTGYIRVELANGADMKLYVTDIVEAEELVRSYGFDPPVRDV,0.212
25,HMDFDFHALGREIKRKRKDKGWTQEYLAQLLDRTPRSIMYMENRGQHPSLNILFKIATLLEISIDQFFF,-0.114
